Test results as given in patent US20220112276A1 (Janssen / Centocor, published 2022).
Numbering of substitutions follows the chain as printed.

B1: 01D01R3 VHH Mono-Fc (Fc fusion)
chain: EVQLVESGGGLVQAGGSLRLSCAASGRTFSVYGMGWFRQAPGQERAFVAAISWSDGSTYYADSVKGRFTISRDNAKNTMYLQMNSLKPEDTAVYFCAADLTGWGLDADVSEYDYWGQGTQVTVSSSPAPELLGGPSVFLFPPKPKDTLMISRTPEVTCVVVDVSHEDPEVKFNWYVDGVEVHNAKTKPREEQYNSTYRVVSVLTVLHQDWLNGKEYKCKVSNKALPAPIEKTISKAKGQPREPQVYTKPPSREEMTKNQVSLSCLVKGFYPSDIAVEWESNGQPENNYKTTVPVLDSDGSFRLASYLTVDKSRWQQGNVFSCSVMHEALHNHYTQKSLSLSPGK
B2: 02B11R3 VHH Mono-Fc (Fc fusion)
chain: EVQLVESGGGLVQAGGSLRLSCAASGRTFSPYGMGWFRQTPGKERAFVAAVDWNDGSTYYSDSVKGRFTISRDNAKNTVYLQMNSLKSEDTAVYYCAADLTGWGLDADVSEYDYWGQGTLVTVSSSPAPELLGGPSVFLFPPKPKDTLMISRTPEVTCVVVDVSHEDPEVKFNWYVDGVEVHNAKTKPREEQYNSTYRVVSVLTVLHQDWLNGKEYKCKVSNKALPAPIEKTISKAKGQPREPQVYTKPPSREEMTKNQVSLSCLVKGFYPSDIAVEWESNGQPENNYKTTVPVLDSDGSFRLASYLTVDKSRWQQGNVFSCSVMHEALHNHYTQKSLSLSPGK
B3: 01G04R3 VHH Mono-Fc (Fc fusion)
chain: B1 chain with E1Q
B4: 01E03R2 VHH Mono-Fc (Fc fusion)
chain: B1 chain with Q120L
B5: 01F03R2 VHH Mono-Fc (Fc fusion)
chain: QVQLVESGGGLVQAGGSLRLSCAASGRTFSSYAMGWFRQAPGKEREFVAVISWSGGSTYYADSVKGRFTISRDNAKNTVYLQMNSLKPEDTAVYYCASGEQPGSNRPYIPEQPIEFMPTDYPSWYDYWGQGTQVTVSSSPAPELLGGPSVFLFPPKPKDTLMISRTPEVTCVVVDVSHEDPEVKFNWYVDGVEVHNAKTKPREEQYNSTYRVVSVLTVLHQDWLNGKEYKCKVSNKALPAPIEKTISKAKGQPREPQVYTKPPSREEMTKNQVSLSCLVKGFYPSDIAVEWESNGQPENNYKTTVPVLDSDGSFRLASYLTVDKSRWQQGNVFSCSVMHEALHNHYTQKSLSLSPGK
B6: 01B01R3 VHH Mono-Fc (Fc fusion)
chain: B5 chain with Q133L
B7: 01G07R3 VHH Mono-Fc (Fc fusion)
chain: QVQLVESGGGLVQAGDSLRLSCAASGRTLSFDTYAMGWFRQAPGKEREFVASIDWSGGTTYYADSVKGRFTVTRDNAKNTVTLRMNSLKPADTAVYYCAAAQYYRSGTSFPANYWGQGTLVTVSSSPAPELLGGPSVFLFPPKPKDTLMISRTPEVTCVVVDVSHEDPEVKFNWYVDGVEVHNAKTKPREEQYNSTYRVVSVLTVLHQDWLNGKEYKCKVSNKALPAPIEKTISKAKGQPREPQVYTKPPSREEMTKNQVSLSCLVKGFYPSDIAVEWESNGQPENNYKTTVPVLDSDGSFRLASYLTVDKSRWQQGNVFSCSVMHEALHNHYTQKSLSLSPGK
B8: 01C02R3 VHH Mono-Fc (Fc fusion)
chain: QVQLVESGGGLVQAGGSLRLSCAASGLSFSSYTMGWFRQVPGKERELISAIHWSGGPTFYSNSVKGRFTISRDNAKDTVYLQMNSLKPEDTAVYYCTAEPVGSMISPDWTYWGQGTLVTVSSSPAPELLGGPSVFLFPPKPKDTLMISRTPEVTCVVVDVSHEDPEVKFNWYVDGVEVHNAKTKPREEQYNSTYRVVSVLTVLHQDWLNGKEYKCKVSNKALPAPIEKTISKAKGQPREPQVYTKPPSREEMTKNQVSLSCLVKGFYPSDIAVEWESNGQPENNYKTTVPVLDSDGSFRLASYLTVDKSRWQQGNVFSCSVMHEALHNHYTQKSLSLSPGK
B9: 01F01R2 VHH Mono-Fc (Fc fusion)
chain: QVQLVESGGGLVQAGGSLRLSCAASGRTFSSNPMGWFRQAPGKEREFVAAISWSGGGTYYADSVKGRFTISRDNAKNTVTLQMNSLKPEDTAVYYCASRDYSDPISLWVEDREYDYWGQGTQVTVSSSPAPELLGGPSVFLFPPKPKDTLMISRTPEVTCVVVDVSHEDPEVKFNWYVDGVEVHNAKTKPREEQYNSTYRVVSVLTVLHQDWLNGKEYKCKVSNKALPAPIEKTISKAKGQPREPQVYTKPPSREEMTKNQVSLSCLVKGFYPSDIAVEWESNGQPENNYKTTVPVLDSDGSFRLASYLTVDKSRWQQGNVFSCSVMHEALHNHYTQKSLSLSPGK
B10: 03B07R3 VHH Mono-Fc (Fc fusion)
chain: B9 chain with Q122L
B11: 01A09R2 VHH Mono-Fc (Fc fusion)
chain: B9 chain with Q1E
B12: 03D05R3 VHH Mono-Fc (Fc fusion)
chain: B9 chain with Q1E, D111G, Q122L
B13: 03D01R3 VHH Mono-Fc (Fc fusion)
chain: EVQLVESGGGLVQPGGSLRLSCAASGFTFRTYYMGWFRQAPGKEREFVGVTRSSDDVTYYADSVKGRFTISRDNAKNTVYLQMSRLKPEDTAVYYCAAKPVPITRYSFPQIGEEYDYWGQGTLVTVSSSPAPELLGGPSVFLFPPKPKDTLMISRTPEVTCVVVDVSHEDPEVKFNWYVDGVEVHNAKTKPREEQYNSTYRVVSVLTVLHQDWLNGKEYKCKVSNKALPAPIEKTISKAKGQPREPQVYTKPPSREEMTKNQVSLSCLVKGFYPSDIAVEWESNGQPENNYKTTVPVLDSDGSFRLASYLTVDKSRWQQGNVFSCSVMHEALHNHYTQKSLSLSPGK
B14: 02B09R3 VHH Mono-Fc (Fc fusion)
chain: B13 chain with Q39R, N77D
B15: 01C09R3 VHH Mono-Fc (Fc fusion)
chain: B13 chain with P14A
B16: 01E02R3LS VHH Mono-Fc (Fc fusion)
chain: EVQLVESGGGLVETGGSLRLSCAASGRTESTYTMAWFRQAPGKERERVATISFSGSTTTYLASVQGRFTISRDGAKNTIFLQMNGLKPEDTAVYYCALDTRRRVGSSPRFYDYWGQGTLVTVSSSPAPELLGGPSVFLFPPKPKDTLMISRTPEVTCVVVDVSHEDPEVKFNWYVDGVEVHNAKTKPREEQYNSTYRVVSVLTVLHQDWLNGKEYKCKVSNKALPAPIEKTISKAKGQPREPQVYTKPPSREEMTKNQVSLSCLVKGFYPSDIAVEWESNGQPENNYKTTVPVLDSDGSFRLASYLTVDKSRWQQGNVFSCSVMHEALHNHYTQKSLSLSPGK
B17: 01D08R3 VHH Mono-Fc (Fc fusion)
chain: QVQLVESGGGLVQAGDSLRLSCAASGRTSSLYNMGWFRQAPGQEREFVAAIHWGGGRTYYADSVKGRFTISRDNAKNTVYLQMNSLEPGDTANYYCAARRAPELLDDYKQKPEEIGAYHYWGQGTQVTVSSSPAPELLGGPSVFLFPPKPKDTLMISRTPEVTCVVVDVSHEDPEVKFNWYVDGVEVHNAKTKPREEQYNSTYRVVSVLTVLHQDWLNGKEYKCKVSNKALPAPIEKTISKAKGQPREPQVYTKPPSREEMTKNQVSLSCLVKGFYPSDIAVEWESNGQPENNYKTTVPVLDSDGSFRLASYLTVDKSRWQQGNVFSCSVMHEALHNHYTQKSLSLSPGK
B18: 01D02R3LS VHH Mono-Fc (Fc fusion)
chain: QVQLVESGGGLVQAGDSLTLSCAASGRSVGFDTYGMAWFRQAPGKEREFVASIAYNGETTSYADSVQGRFTVTRENAKNTIALRMNGLKPDDTAVYYCAAAQYYLTGTSFPAKFWGQGTLVTVSSSPAPELLGGPSVFLFPPKPKDTLMISRTPEVTCVVVDVSHEDPEVKFNWYVDGVEVHNAKTKPREEQYNSTYRVVSVLTVLHQDWLNGKEYKCKVSNKALPAPIEKTISKAKGQPREPQVYTKPPSREEMTKNQVSLSCLVKGFYPSDIAVEWESNGQPENNYKTTVPVLDSDGSFRLASYLTVDKSRWQQGNVFSCSVMHEALHNHYTQKSLSLSPGK
B19: 03D09R3 VHH Mono-Fc (Fc fusion)
chain: QVQLVESGGGLVQAGGSLRLSCAASGRTVSSVAMGWFRQAPGKEREFVATISWTGGSTYYADSVKGRFTISRDNAKNTAYLQMNSLKPEDTAVYYCAAGYPADPIALMTLRYEYDYWGQGTLVTVSSSPAPELLGGPSVFLFPPKPKDTLMISRTPEVTCVVVDVSHEDPEVKFNWYVDGVEVHNAKTKPREEQYNSTYRVVSVLTVLHQDWLNGKEYKCKVSNKALPAPIEKTISKAKGQPREPQVYTKPPSREEMTKNQVSLSCLVKGFYPSDIAVEWESNGQPENNYKTTVPVLDSDGSFRLASYLTVDKSRWQQGNVFSCSVMHEALHNHYTQKSLSLSPGK

What follows are binders tested against T1, human pIgR extracellular domain (ECD) (human, UniProt P01833 19-638) (assay: SPR, VHH captured by anti-Fc, ECD analyte).
T1 construct: Bought from R&D Systems (Cat 2717-PG-050); also called hpIgR ECD
Protocol: (§1) In an assay, two flow cells of the SPR were used, in which the flow cell 1 ran the buffer reference, and the flow cell 2 ran the analyte. […] The HBSP (GE) buffer was followed at a flow rate of 30 μL/min. Then, the VHHs were captured on the anti-human Fc protein surface at 0.5 ug/ml (˜200-300 RU) on the flow cell 2. The running buffer was changed to HBSP with 100 ug/ml BSA after the capture. Next, the pIgR extracellular domains were used as analyte and loaded in a series of concentrations, starting at 30 nM with further 3-fold dilution series.
(§2) The extracellular domains were prepared as follows: cynomolgus monkey and rat extracellular domains were produced and characterized in house; mouse and human pIgR extracellular domains were purchased from R&D Systems (Cat #2800-PG-050 & 2717-PG-050 respectively). The pIgR extracellular domains were injected from low to high concentration using a single-cycle kinetics method. The off-rate was monitored at 30 minutes after the last or highest concentration injection. The reference run was completed under the same conditions except that the pIgR injection was replaced by buffer injection.
(§3) The raw data were processed by subtracting two sets of reference data from the response data: (1) reference flow cell 1 subtracted from sample flow cell 2; and (2) buffer blank run subtracted from experimental run. The processed data at all concentrations for each VHH were globally fit to a 1:1 simple Langmuir binding model to extract estimates of the kinetic constants (kₒₙ, koff) and affinity constants (KD).

T1 sequence (P01833 other isoform, or with tags, fused parts or gaps): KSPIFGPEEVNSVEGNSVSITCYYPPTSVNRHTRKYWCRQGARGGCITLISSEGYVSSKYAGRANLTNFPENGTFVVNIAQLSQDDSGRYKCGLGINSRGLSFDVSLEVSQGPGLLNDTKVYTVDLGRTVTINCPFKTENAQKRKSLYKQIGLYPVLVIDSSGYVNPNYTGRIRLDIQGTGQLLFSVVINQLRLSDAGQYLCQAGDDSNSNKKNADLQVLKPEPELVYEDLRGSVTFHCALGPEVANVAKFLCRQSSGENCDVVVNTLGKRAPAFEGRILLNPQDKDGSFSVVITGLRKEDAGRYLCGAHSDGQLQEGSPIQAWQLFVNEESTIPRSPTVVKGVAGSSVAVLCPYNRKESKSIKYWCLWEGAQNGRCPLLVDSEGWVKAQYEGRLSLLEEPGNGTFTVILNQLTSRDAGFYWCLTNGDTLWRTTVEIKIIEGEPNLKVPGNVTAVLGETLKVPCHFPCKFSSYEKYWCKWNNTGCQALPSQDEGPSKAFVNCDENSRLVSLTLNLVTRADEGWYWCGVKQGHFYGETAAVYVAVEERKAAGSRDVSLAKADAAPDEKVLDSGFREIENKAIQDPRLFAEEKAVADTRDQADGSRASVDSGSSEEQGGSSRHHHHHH

Binder | Kd [nM]
B1 | 5.96
B2 | 0.858
B3 | 6.22
B4 | 6.1
B5 | 1.36
B6 | 1.38
B7 | 1.18
B8 | 1.23
B9 | 2.13
B10 | 2.33
B11 | 2.14
B12 | 2.14
B13 | 2.26
B14 | 2.46
B15 | 2.18
B16 | 0.6
B17 | 0.195
B18 | 0.809
B19 | 0.072

Each binder was assayed against T2, cynomolgus monkey pIgR extracellular domain (cynomolgus monkey, UniProt A0A2K5WMU9 19-638) (assay: SPR, VHH captured by anti-Fc, ECD analyte).
T2 construct: extracellular domain
Protocol: as §1, §2, §3

T2 sequence (A0A2K5WMU9 entry or part of it): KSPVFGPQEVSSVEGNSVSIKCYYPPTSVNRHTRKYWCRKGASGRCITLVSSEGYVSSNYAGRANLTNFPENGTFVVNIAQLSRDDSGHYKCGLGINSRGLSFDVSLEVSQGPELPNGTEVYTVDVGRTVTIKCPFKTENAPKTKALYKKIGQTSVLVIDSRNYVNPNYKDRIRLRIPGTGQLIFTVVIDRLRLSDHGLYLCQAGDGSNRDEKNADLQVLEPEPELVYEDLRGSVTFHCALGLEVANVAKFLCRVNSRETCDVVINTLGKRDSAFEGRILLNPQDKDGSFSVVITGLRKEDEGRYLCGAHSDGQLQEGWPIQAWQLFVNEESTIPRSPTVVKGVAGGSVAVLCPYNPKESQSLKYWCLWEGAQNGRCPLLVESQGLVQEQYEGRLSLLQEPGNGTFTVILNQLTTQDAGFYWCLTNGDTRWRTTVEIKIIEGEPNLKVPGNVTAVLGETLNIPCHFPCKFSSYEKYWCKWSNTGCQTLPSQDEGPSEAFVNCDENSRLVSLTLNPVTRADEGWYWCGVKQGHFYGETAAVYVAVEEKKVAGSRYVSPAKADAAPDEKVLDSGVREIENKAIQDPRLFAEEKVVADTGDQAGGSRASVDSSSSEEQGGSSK

Binder | Kd [nM]
B1 | 375
B2 | 101
B3 | 399
B4 | 373
B5 | 3.57
B6 | 3.78
B7 | 40.8
B8 | 8.43
B9 | 4.08
B10 | 4.26
B11 | 4.02
B12 | 4.59
B13 | 5.51
B14 | 9.51
B15 | 5.73
B16 | 0.018
B17 | 448
B18 | 0.885
B19 | 0.004
